Assays:
clh1_rat Cltc [1] = biological target: clh1_rat Cltc (UniProt P11442)
clh1_rat Cltc [2] = biological target: clh1_rat Cltc (UniProt P11442); remark: listed apart in the source
clh1_rat Cltc [3] = biological target: clh1_rat Cltc (UniProt P11442); remark: listed apart in the source

Sequence of clh1_rat Cltc (P11442 whole entry): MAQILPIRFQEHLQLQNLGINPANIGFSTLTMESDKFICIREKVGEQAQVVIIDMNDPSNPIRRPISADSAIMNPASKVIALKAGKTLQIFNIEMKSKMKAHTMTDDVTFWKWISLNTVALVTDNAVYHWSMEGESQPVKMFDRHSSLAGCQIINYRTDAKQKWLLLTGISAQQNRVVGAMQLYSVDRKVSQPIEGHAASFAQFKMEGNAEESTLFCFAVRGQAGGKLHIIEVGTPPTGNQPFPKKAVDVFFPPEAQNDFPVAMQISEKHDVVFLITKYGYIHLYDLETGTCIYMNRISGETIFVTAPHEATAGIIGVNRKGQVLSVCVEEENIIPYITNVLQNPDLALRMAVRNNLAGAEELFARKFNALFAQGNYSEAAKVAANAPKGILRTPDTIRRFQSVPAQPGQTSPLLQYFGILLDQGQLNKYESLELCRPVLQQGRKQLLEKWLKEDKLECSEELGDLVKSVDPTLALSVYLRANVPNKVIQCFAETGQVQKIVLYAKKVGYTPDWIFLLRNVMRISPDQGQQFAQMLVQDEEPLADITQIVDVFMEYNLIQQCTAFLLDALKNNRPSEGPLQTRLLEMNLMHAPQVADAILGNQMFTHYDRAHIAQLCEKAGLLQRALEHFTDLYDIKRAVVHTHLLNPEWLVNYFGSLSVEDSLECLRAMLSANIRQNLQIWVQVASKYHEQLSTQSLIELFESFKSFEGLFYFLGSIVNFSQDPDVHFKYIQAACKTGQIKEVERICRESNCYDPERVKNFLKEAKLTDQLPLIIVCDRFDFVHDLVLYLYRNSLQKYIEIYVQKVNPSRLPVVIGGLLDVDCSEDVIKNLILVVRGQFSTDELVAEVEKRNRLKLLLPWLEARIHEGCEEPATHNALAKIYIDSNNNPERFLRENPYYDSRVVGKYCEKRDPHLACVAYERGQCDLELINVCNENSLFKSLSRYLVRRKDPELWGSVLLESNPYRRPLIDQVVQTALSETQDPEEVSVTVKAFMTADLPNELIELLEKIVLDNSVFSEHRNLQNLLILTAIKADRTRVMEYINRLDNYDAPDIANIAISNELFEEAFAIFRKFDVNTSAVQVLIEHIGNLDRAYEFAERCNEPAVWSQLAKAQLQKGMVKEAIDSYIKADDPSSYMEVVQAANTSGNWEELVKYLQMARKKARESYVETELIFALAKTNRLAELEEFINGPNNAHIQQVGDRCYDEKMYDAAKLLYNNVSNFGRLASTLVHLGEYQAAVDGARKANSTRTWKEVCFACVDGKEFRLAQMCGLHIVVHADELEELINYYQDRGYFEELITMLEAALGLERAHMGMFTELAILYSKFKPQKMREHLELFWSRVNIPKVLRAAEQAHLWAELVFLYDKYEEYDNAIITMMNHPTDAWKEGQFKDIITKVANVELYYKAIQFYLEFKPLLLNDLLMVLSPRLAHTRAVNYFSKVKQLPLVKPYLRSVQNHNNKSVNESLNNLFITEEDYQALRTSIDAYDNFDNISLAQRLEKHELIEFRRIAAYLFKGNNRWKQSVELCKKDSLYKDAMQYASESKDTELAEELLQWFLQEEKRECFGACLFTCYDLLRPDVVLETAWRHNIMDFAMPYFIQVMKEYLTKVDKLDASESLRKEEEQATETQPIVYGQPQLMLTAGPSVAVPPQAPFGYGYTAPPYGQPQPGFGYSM
Sequence of Inositol polyphosphate 5-phosphatase OCRL (Homo sapiens), Q01968 I74Q (Q01968 whole entry I74Q): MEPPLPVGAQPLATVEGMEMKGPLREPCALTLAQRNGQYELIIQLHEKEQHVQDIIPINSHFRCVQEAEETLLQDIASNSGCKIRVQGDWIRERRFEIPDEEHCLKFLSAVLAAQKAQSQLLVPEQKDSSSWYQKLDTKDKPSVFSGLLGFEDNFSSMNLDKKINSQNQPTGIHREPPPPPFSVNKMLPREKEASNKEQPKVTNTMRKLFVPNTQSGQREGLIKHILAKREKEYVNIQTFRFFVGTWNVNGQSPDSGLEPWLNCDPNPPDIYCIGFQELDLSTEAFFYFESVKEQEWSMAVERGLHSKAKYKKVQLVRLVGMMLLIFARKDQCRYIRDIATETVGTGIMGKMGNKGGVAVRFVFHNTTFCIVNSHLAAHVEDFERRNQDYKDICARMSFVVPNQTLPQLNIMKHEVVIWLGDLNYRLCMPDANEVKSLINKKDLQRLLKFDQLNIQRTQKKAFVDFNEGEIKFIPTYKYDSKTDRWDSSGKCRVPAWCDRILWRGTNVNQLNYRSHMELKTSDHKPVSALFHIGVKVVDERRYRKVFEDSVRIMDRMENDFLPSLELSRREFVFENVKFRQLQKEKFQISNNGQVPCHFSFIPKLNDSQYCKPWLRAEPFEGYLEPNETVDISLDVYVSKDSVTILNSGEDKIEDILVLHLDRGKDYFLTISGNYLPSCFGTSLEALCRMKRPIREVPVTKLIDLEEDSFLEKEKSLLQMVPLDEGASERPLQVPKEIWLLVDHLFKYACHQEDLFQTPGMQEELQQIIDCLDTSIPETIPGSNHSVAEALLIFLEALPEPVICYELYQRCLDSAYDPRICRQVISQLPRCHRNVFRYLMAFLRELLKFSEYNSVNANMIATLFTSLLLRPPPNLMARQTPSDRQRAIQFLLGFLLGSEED
Sequence of Inositol polyphosphate 5-phosphatase OCRL (Homo sapiens), Q01968 L73S (Q01968 whole entry L73S): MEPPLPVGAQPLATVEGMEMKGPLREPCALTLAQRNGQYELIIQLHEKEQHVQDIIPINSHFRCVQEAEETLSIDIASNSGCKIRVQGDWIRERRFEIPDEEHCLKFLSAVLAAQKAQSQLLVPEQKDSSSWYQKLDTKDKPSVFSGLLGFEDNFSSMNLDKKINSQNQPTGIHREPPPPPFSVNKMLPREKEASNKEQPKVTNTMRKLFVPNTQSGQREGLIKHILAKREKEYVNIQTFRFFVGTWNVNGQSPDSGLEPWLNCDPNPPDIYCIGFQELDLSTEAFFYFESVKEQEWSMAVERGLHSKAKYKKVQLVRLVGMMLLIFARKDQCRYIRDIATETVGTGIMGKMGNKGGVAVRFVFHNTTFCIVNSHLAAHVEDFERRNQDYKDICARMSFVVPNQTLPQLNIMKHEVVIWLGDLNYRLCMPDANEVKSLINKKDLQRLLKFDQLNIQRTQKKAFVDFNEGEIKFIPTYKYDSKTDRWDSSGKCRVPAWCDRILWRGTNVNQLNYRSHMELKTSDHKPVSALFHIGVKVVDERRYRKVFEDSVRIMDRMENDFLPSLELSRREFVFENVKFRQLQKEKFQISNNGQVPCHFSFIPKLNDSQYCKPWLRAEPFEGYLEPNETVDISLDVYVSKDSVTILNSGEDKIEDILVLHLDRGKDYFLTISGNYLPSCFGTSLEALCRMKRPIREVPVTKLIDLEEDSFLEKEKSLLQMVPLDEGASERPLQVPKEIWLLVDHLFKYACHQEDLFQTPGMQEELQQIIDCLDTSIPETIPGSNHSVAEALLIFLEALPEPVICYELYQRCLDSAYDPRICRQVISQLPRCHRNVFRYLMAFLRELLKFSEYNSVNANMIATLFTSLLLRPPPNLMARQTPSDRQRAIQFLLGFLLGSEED
Sequence of Inositol polyphosphate 5-phosphatase OCRL (Homo sapiens), Q01968 I76Q (Q01968 whole entry I76Q): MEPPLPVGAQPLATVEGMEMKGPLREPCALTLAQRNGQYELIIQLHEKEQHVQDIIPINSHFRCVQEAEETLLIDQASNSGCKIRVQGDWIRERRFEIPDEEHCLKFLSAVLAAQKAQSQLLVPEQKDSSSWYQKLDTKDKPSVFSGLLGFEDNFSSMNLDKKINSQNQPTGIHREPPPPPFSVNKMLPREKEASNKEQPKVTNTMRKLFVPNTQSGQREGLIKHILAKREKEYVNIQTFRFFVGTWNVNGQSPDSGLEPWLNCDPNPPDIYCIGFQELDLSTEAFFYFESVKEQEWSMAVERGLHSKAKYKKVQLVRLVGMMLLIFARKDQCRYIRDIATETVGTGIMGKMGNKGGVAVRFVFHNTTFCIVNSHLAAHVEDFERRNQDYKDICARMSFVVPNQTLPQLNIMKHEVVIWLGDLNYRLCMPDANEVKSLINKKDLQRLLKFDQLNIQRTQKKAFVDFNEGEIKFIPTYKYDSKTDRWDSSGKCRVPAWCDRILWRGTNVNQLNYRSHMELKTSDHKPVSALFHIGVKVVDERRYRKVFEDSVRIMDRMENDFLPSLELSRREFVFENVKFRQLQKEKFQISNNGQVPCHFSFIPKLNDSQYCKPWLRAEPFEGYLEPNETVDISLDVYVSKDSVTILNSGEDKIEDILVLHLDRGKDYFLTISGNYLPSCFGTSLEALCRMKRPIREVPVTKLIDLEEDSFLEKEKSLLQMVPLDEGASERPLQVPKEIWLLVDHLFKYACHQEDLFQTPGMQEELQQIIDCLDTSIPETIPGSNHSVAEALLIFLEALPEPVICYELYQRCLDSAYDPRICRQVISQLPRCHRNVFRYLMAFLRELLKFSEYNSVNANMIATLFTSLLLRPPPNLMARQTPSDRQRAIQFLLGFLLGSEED

Inositol polyphosphate 5-phosphatase OCRL (Homo sapiens), Q01968 I74Q
effect of a mutation on the interaction (clh1_rat Cltc [1]): disrupting interaction

Inositol polyphosphate 5-phosphatase OCRL (Homo sapiens), Q01968 I76Q
effect of a mutation on the interaction (clh1_rat Cltc [2]): disrupting interaction

Inositol polyphosphate 5-phosphatase OCRL (Homo sapiens), Q01968 L73S
effect of a mutation on the interaction (clh1_rat Cltc [3]): disrupting interaction

— IntAct's records for PubMed 19536138
